From PMC10140330

Target: SmT1-R, resistin-trimerized SARS-CoV-2 reference strain spike ectodomain (SARS-CoV-2 | human) (UniProt P0DTC2)
Experiment: SPR; Biacore T200, 25°C, PBS with 0.05% Tween 20 and 3.4 mM EDTA; spike trimer captured through its resistin domain on an immobilised anti-resistin VHH-Fc; monomeric ACE2 flowed over, single cycle kinetics, three concentrations, 5-fold dilutions from 200 nM; 1:1 binding model

Substance: recombinant human ACE2, purified monomeric (from UniProt Q9BYF1 18-805) (receptor)
- Kd: 28 nM
